Results reported in patent US20240132578A1.

Key:
Assay in all cases: cell-based or functional assay
[1] = molecular target: HIV-1 envelope glycoprotein (Env) of isolate 92WR026 (HIV-1)
[2] = molecular target: HIV-1 Env of isolate MG RM-D-026 (subtype D) (HIV-1)
[3] = molecular target: HIV-1 Env of isolate APV_6 (subtype B), on pseudovirus (HIV-1)
[4] = molecular target: HIV-1 Env of isolate MG RM-D-028 (subtype D) (HIV-1)
[5] = molecular target: HIV-1 Env of isolate MG RM-C-023 (HIV-1)
[6] = molecular target: HIV-1 Env of isolate MGRM-Chronic-B-004 (subtype B), on pseudovirus (HIV-1)
[7] = molecular target: HIV-1 Env of isolate MGRM-F1-013 (subtype F) (HIV-1)
[8] = molecular target: HIV-1 Env of isolate MG RM-D-024 (subtype D) (HIV-1)
[9] = molecular target: HIV-1 Env of isolate MGRM-C-024 (clade C pseudovirus) (HIV-1)
[10] = molecular target: HIV-1 Env of isolate MG RM-D-011 (subtype D) (HIV-1)
[11] = molecular target: HIV-1 envelope glycoprotein (Env) of isolate 92UG031 (HIV-1)
[12] = molecular target: HIV-1 envelope glycoprotein (Env) of isolate 92RW008 (HIV-1)
[13] = molecular target: HIV-1 Env of isolate 92UG024 (subtype D) (HIV-1)
[14] = molecular target: HIV-1 Env of isolate MGRM-Chronic-B-002 (subtype B), on pseudovirus (HIV-1)
[15] = molecular target: HIV-1 Env of isolate MG RM-D-012 (subtype D) (HIV-1)
[16] = molecular target: HIV-1 Env of isolate NL43 (clade B) (HIV-1)
[17] = molecular target: HIV-1 Env of isolate 93TH305 (subtype B), on pseudovirus (HIV-1)
[18] = molecular target: HIV-1 JR-CSF Env S387A (HIV-1 isolate JR-CSF) (UniProt P20871)
[19] = molecular target: HIV-1 JR-CSF Env N386A (HIV-1 isolate JR-CSF) (UniProt P20871)
[20] = molecular target: HIV-1 JR-CSF Env R350A (HIV-1 isolate JR-CSF) (UniProt P20871)
[21] = molecular target: HIV-1 JR-CSF Env G324A (HIV-1 isolate JR-CSF) (UniProt P20871)
[22] = molecular target: aMLV envelope on pseudotyped virus (negative control) (aMLV)
[23] = molecular target: HIV-1 MGRM-C-027 Env (pseudovirus) (HIV-1)
[24] = molecular target: HIV-1 envelope glycoprotein (Env) of isolate APV17 (HIV-1)
[25] = molecular target: HIV-1 envelope glycoprotein (Env) of isolate JRFL (HIV-1)
[26] = molecular target: HIV-1 MGRM-C-028 envelope glycoprotein (Env), clade C pseudovirus (HIV-1)
[27] = molecular target: HIV-1 JRFL envelope glycoprotein (Env), clade B pseudovirus (HIV-1)
[28] = molecular target: HIV-1 MGRM-C-027 Env (HIV-1 isolate MGRM-C-027 (clade C))
[29] = molecular target: HIV-1 JRFL Env (HIV-1 isolate JRFL (clade B))
[30] = molecular target: HIV-1 MGRM-D-018 envelope glycoprotein (Env) on virus (HIV-1, clade D, isolate MGRM-D-018)
[31] = molecular target: HIV-1 92UG005 envelope glycoprotein (Env) on virus (HIV-1, clade D, isolate 92UG005)
[32] = molecular target: HIV-1 MGRM-A-010 envelope glycoprotein (Env) (HIV-1)
[33] = molecular target: HIV-1 MGRM-C-027 envelope glycoprotein (Env) (HIV-1)
[34] = molecular target: HIV-1 JR-CSF Env N276A (HIV-1 (isolate JR-CSF)) (UniProt P20871)
[35] = molecular target: HIV-1 Env of isolate IAVI-C3 (Clade C) (HIV-1)
[36] = molecular target: HIV-1 Env of isolate APV-17 (Clade B) (HIV-1)
[37] = molecular target: HIV-1 Env of isolate MGRM-F1-008 (subtype F) (HIV-1)

1496_C09 (PG9) (TCN-109) (antibody)
IC50 [1]: 0.164 µg/mL
IC50 (µg/mL), pseudovirus neutralization [2]: 23.7 µg/mL
IC50, single-round pseudovirus neutralization [3]: 0.181 µg/mL
IC50 (µg/mL), pseudovirus neutralization [4]: 20.2 µg/mL
IC50 (µg/mL), pseudovirus neutralization [5]: 0.614 µg/mL
IC50, single-round pseudovirus neutralization [6]: 0.533 µg/mL
IC50 (µg/mL), pseudovirus neutralization [7]: 1.25 µg/mL
IC50 (µg/mL), pseudovirus neutralization [8]: 0.038 µg/mL
IC50 (µg/mL), single-round pseudovirus neutralization [9]: 0.227 µg/mL
IC50 (µg/mL), pseudovirus neutralization [10]: 0.071 µg/mL
IC50 [11]: 3.6 µg/mL
IC50 [12]: 6 ng/mL
IC50 (µg/mL), pseudovirus neutralization [13]: 1.86 µg/mL
IC50, single-round pseudovirus neutralization [14]: 3.44 µg/mL
IC50 (µg/mL), pseudovirus neutralization [15]: 16.2 µg/mL
neutralization IC50 [16]: 0.687 µg/mL
IC50, single-round pseudovirus neutralization [17]: 8.12 µg/mL

5147_N06 (PGT-130) (antibody)
Fold IC50 increase relative to wild-type [18]: 0.7 fold
Fold IC50 increase relative to wild-type [19]: 0.1 fold
Fold IC50 increase relative to wild-type [20]: 0.5 fold
Fold IC50 increase relative to wild-type [21]: > 50 fold

1495_C14 (PGC14) (antibody)
IC50, Neutralizing Antibody Assay, Virus/Ab Incubation 1 hour [22]: > 50 µg/mL
IC50, Neutralizing Antibody Assay, Virus/Ab Incubation 18 hour [22]: > 50 µg/mL

5123_A06 (PGT-125) (antibody)
Fold IC50 increase relative to wild-type [19]: 0.8 fold
Neutralization by PGT-125, IC50 [23]: > 10 µg/mL
Neutralization by PGT-125, IC80 [23]: > 10 µg/mL
Neutralization by PGT-125, IC90 [23]: > 10 µg/mL
Neutralization by PGT-125, IC95 [23]: > 10 µg/mL

5141_B17 (PGT-126) (antibody)
Neutralization IC80 [24]: 4.43 µg/mL
Neutralization IC90 [24]: > 10 µg/mL
Neutralization IC95 [24]: > 10 µg/mL
neutralization IC50 [24]: 0.501 µg/mL
Neutralization IC80 [25]: 0.0454 µg/mL
Neutralization IC90 [25]: 0.09 µg/mL
Neutralization IC95 [25]: 0.169 µg/mL
neutralization IC50 [25]: 0.014 µg/mL

4858_P08 (PGT-123) (antibody)
IC50, pseudovirus neutralization [26]: 0.443 µg/mL
IC80 (pseudovirus neutralization) [26]: 2.8 µg/mL
IC90 (pseudovirus neutralization) [26]: 7.11 µg/mL
IC95 (pseudovirus neutralization) [26]: > 10 µg/mL
IC50, pseudovirus neutralization [27]: 0.0283 µg/mL
IC80 (pseudovirus neutralization) [27]: 0.0904 µg/mL
IC90 (pseudovirus neutralization) [27]: 0.178 µg/mL
IC95 (pseudovirus neutralization) [27]: 0.332 µg/mL
Fold IC50 increase relative to wild-type [21]: 14.5 fold

4838_L06 (PGT-121) (antibody)
Neutralization IC80 [28]: 0.0829 µg/mL
Neutralization IC90 [28]: 0.374 µg/mL
Neutralization IC95 [28]: 3.14 µg/mL
Neutralization IC80 [29]: 0.0806 µg/mL
Neutralization IC90 [29]: 0.151 µg/mL
Neutralization IC95 [29]: 0.267 µg/mL

4877_D15 (PGT-122) (antibody)
Neutralization IC80 [30]: 0.035 µg/mL
Neutralization IC90 [30]: 0.0674 µg/mL
Neutralization IC95 [30]: 0.125 µg/mL
neutralization IC50 [30]: 0.0115 µg/mL
Neutralization IC80 [31]: > 10 µg/mL
Neutralization IC90 [31]: > 10 µg/mL
Neutralization IC95 [31]: > 10 µg/mL
neutralization IC50 [31]: > 10 µg/mL

5329_C19 (PGT-136) (antibody)
Neutralization IC80 [32]: > 10 µg/mL
Neutralization IC90 [32]: > 10 µg/mL
Neutralization IC95 [32]: > 10 µg/mL
neutralization IC50 [32]: > 10 µg/mL
Neutralization IC80 [33]: > 10 µg/mL
Neutralization IC90 [33]: > 10 µg/mL
Neutralization IC95 [33]: > 10 µg/mL
neutralization IC50 [33]: > 10 µg/mL

5136_H01 (PGT-131) (antibody)
Fold IC50 increase relative to wild-type [34]: 0.8 fold
Fold IC50 increase relative to wild-type [20]: 1.3 fold

1443_C16 (PG16) (TCN-116) (antibody)
IC90 (neutralization of pseudovirus) [35]: > 50 µg/mL
IC50, Neutralizing Antibody Assay, Virus/Ab Incubation 1 hour [22]: > 50 µg/mL
IC50, Neutralizing Antibody Assay, Virus/Ab Incubation 18 hour [22]: > 50 µg/mL
IC90 (neutralization of pseudovirus) [36]: > 50 µg/mL

2G12 (antibody)
IC90 (neutralization of pseudovirus) [35]: > 50 µg/mL

PGV04 (antibody)
IC50 [1]: 0.14 µg/mL
IC50 (µg/mL), pseudovirus neutralization [2]: 1.76 µg/mL
IC50, single-round pseudovirus neutralization [3]: 24.2 µg/mL
IC50 (µg/mL), pseudovirus neutralization [4]: 1.01 µg/mL
IC50 (µg/mL), pseudovirus neutralization [5]: 0.128 µg/mL
IC50, single-round pseudovirus neutralization [6]: 0.047 µg/mL
IC50 (µg/mL), pseudovirus neutralization [7]: 0.084 µg/mL
IC50 (µg/mL), pseudovirus neutralization [8]: > 50 µg/mL
IC50 (µg/mL), single-round pseudovirus neutralization [9]: > 50 µg/mL
IC50 (µg/mL), pseudovirus neutralization [10]: 0.025 µg/mL
IC50 (µg/mL), pseudovirus neutralization [37]: 1.03 µg/mL
IC50 [11]: 4.46 µg/mL
IC50 [12]: 14 ng/mL
IC50 (µg/mL), pseudovirus neutralization [13]: 0.201 µg/mL
IC50, single-round pseudovirus neutralization [14]: 0.142 µg/mL
IC50 (µg/mL), pseudovirus neutralization [15]: 0.125 µg/mL
IC50, single-round pseudovirus neutralization [17]: 0.255 µg/mL

5343_B08 (PGT-135) (antibody)
Fold IC50 increase relative to wild-type [18]: 0.6 fold
Fold IC50 increase relative to wild-type [34]: 2.5 fold

b12 (antibody)
IC90 (neutralization of pseudovirus) [36]: > 50 µg/mL
